According to US11466260B2, “Thermostable haloarchaeal inorganic pyrophosphatase” (UNIVERSITY OF FLORIDA RESEARCH FOUNDATION, INCORPORATED, priority 2015, dated 2022):
Entries after “also recorded” stand apart in the source; their conditions may differ. Where two headings read alike, the source gives them in different places.

Key:
HvPPA = molecular target: T1, HvPPA (Haloferax volcanii, UniProt D4GT97); assay: Sodium fluoride-based inhibition of HvPPA; assay type: biochemical
T1 construct: thrombin-cleavage site (linker between His6 and HvPPA) (N); made in house; host or cells: Haloferax volcanii H26-pJAM2920
T1 sequence (D4GT97 1-177): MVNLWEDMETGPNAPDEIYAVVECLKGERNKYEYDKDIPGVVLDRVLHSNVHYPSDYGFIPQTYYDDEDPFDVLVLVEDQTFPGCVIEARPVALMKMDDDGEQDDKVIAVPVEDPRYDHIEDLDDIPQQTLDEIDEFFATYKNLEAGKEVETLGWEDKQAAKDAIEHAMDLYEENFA
Description: A) HvPPA (1.3 μg) was assayed in 1 ml reaction volume containing 1 mM PPi, 10 mM MgCl2, 3 M NaCl and 20 mM Tris-Cl buffer pH 7.5 supplemented with NaF as indicated. Reactions were monitored for 15 min at RT.
HvPPA-mediated hydrolysis of PPi to Pi was determined spectrophotometrically. Reagents were in nanopure water (Barnstead/Thermolyne Nanopure lab water system). Sodium pyrophosphate tetrabasic decahydrate (Sigma Aldrich) was used as a substrate. For kinetic measurements, reaction mixtures (500 μl total) contained 0.5-1 μg HvPPA and 1 mM PPi in high-salt buffer (3 M NaCl and 20 mM Tris-HCl, pH 8.5). Reactions were incubated at 42° C. for 1-3 min. Orthophosphate levels were determined by malachite green assay. Briefly, 2.5 ml of 14% (w/v) (NH4)2MoO4 and 0.2 ml of 11% (v/v) TWEEN 20 ® (Polyoxyethylene sorbitan monolaurate) were added into a 10-ml color reagent I (containing 1.67 ml conc. sulfuric acid, 8.33 ml nanopure H2O, and 12.22 mg malachite green). In triplicate, 50 μl of the color reagent was mixed with 200 μl of the reaction mixture and incubated at room temperature for 10 min. The formation of (MG^+)(H2PMo12O40) (where MG^+ represents ionized malachite green) was monitored at A630. A less sensitive malachite green assay was also used in which reaction aliquots (50 μl) were mixed with 250 μl color reagent II and 10 μl 1.5% (v/v) TWEEN 20 ® (Polyoxyethylene sorbitan monolaurate) in triplicate; product formation was immediately monitored at A650. Color reagent II was generated by mixing 1 volume of 4.2% (w/v) (NH4)2MoO4 in 5 N HCl with 3 volumes of 0.2% (w/v) malachite green; after 30 minutes, the solution was filtered with a 0.45 μm filter and stored at room temperature. Freeze-dried KH2PO4 was used as the standard. Assay mixtures with PPi minus HvPPA were used for individual background subtraction. All proteins used in this assay were buffer-exchanged with Tris-high-salt buffer in nanopure H2O prior to use. All experiments were performed in triplicate and the mean±standard deviation (S.D.) was calculated.

[1] = cited from earlier work; for Vmax: highest reported
[2] = Coupled assay of ubiquitin-like protein adenylation; assay type: biochemical, Haloferax volcanii; settings: UbaA and HvPPA with ATP and SAMP1, 2 M NaCl, 42° C.
Description: FIGS. 7A-7B. on Haloferax volcanii inorganic phyrophosphatase (HvPPA) activity solvent and coupled adenylation assay at high temperature and low water activity. A) Schematic of the coupled assay. Adenylation of the ubiquitin-like SAMP by the E1-like enzyme (UbaA) was monitored by HvPPA mediated hydrolysis of the PPi (P2O7^4−) by-product to 2 Pi (2 moles HPO4^2−) at 50° C. B) Generation of Pi correlated with the addition of ATP, UbaA, HvPPA and SAMP1 to the assay buffer. ΔGG, C-terminal diglycine residue deletion.
UbaA-mediated hydrolysis of ATP to AMP and PPi in the presence of the ubiquitin-like SAMP1 was monitored by coupled assay with HvPPA. Proteins were buffer-exchanged with HEPES-salt buffer in Nanopure H2O prior to use. Reaction mixtures (500 μl total) containing 20 μM UbaA, 20 μM SAMP1, 0.5 μM HvPPA, 2.5 mM nucleotide, 2.5 mM MgCl2, 50 μM ZnCl2 in high-salt buffer (2 M NaCl and 50 mM HEPES in Nanopure H2O, pH 7.5) were incubated at 37-42° C. for 1 h. Nucleotides were ATP, AMP, ADP, AMP-PNP, CTP, GTP, TTP and UTP. Proteins were removed by Ultracel-3 centrifugal filtration prior to determining orthophosphate levels by malachite green assay modified as described above. Assay mixtures with nucleotide alone were used for individual background subtraction.

[3] = assay type: physicochemical, Haloferax volcanii
Description: (§1) FIGS. 6A-6D. Effect of salt, solvent and temperature on Haloferax volcanii inorganic phyrophosphatase (HvPPA). A) HvPPA thermostability. HvPPA was incubated at 42° C. and 65° C. as indicated with enzyme at 0.093 mg/ml of buffer (20 mM Tris-Cl pH 8, 2.5 mM MgCl2 and 3 M NaCl). HvPPA was diluted to 0.28 μg per 100 μl buffer (with MgCl2 increased to 10 mM) and assayed by addition of 1 mM PPi substrate (10 min, RT). Activity is % relative to samples incubated on ice. B) HvPPA stability in 50% (v/v) solvent. HvPPA was incubated for 2 h (on ice) at 0.47 mg/ml buffer (20 mM Tris-Cl pH 8 and 2 M NaCl) supplemented with solvent as indicated. HvPPA was diluted to 2.4 μg per 100 μl buffer (20 mM Tris-Cl pH 8, 2.5 mM MgCl2 and 2 M NaCl) and assayed by addition of 50 μM PPi substrate (10 min, RT). Activity is % relative to samples incubated with no solvent. C) HvPPA activity in 25% (v/v) solvent. Reactions were 500 μl with 2.8 μg HvPPA, 1.5 M NaCl, 1.5 mM PPi, 10 mM MgCl2. Reaction occurred at 10 minutes at RT. D) HvPPA stability in salt. HvPPA was incubated for 2 h (on ice) at 0.3 mg per ml of buffer (20 mM Tris-Cl pH 8) supplemented with NaCl at the concentrations indicated. HvPPA was diluted to 0.87 μg per 100 μl reaction buffer as in FIG. 6B. Activity is % relative to samples incubated in buffer supplemented with 3M NaCl.

[4] = PPi assay: HvPPA-mediated hydrolysis of PPi to Pi (malachite green); assay type: biochemical, Haloferax volcanii; settings: for Temp., optimum: 20 mM Tris-Cl pH 8, 3 M NaCl; for Cation-dependence: EDTA-treated enzyme, 20 mM Tris-Cl pH 8, 2 M NaCl
Description: FIGS. 4A-4D. Effect of pH, temperature, salt and divalent cations on Haloferax volcanii inorganic phyrophosphatase (HvPPA) activity. A-C) HvPPA was equilibrated for 10 min at the pH, temperature, and NaCl concentrations indicated prior to the addition of PPi substrate (100 μM). MgCl2 (10 mM) was included in the activity assays. For pH optimum, assays were supplemented with 3 M NaCl and included 20 mM buffers of sodium acetate at pH 4-5, MES at pH 6-6.5, Tris-Cl at pH 7-9 and CAPS at pH 10. For temperature optimum assays, reactions were in 20 mM Tris-Cl pH 8 supplemented with 3 M NaCl. For salt optimum, HvPPA was diluted from 20 mM Tris-Cl pH 8 containing 3 m NaCl into the same buffer with NaCl concentrations as indicated. D) To test the influence of cations, HvPPA was dialyzed sequentially against 500 ml of buffer (20 mM Tris-Cl pH 8, 2 M NaCl and 1 μM EDTA) (4 h at 4° C.) and the same buffer with EDTA omitted (4 h at 4° C.). Reactions for panel D contained HvPPA (0.93 μg), 20 mM Tris-Cl pH 8, 2 M NaCl and divalent metal at the concentration indicated. Metals used were: CaCl2.2H2O, ZnCl2, CoCl2.6H2O, MnCl2.4H2O, NiCl2.6H2O and MgCl2.6H2O. Reactions were monitored for 10 min at RT unless otherwise indicated.
as §1
PPA activity monitored in Tris-salt buffer at 37° C. and pH 8.5 with 0.1 mM PPi for 10 min. U, units defined as μmol product/min. SD, standard deviation of three experiments.
HvPPA-mediated hydrolysis of PPi to Pi was determined spectrophotometrically. Reagents were in nanopure water (Barnstead/Thermolyne Nanopure lab water system). Sodium pyrophosphate tetrabasic decahydrate (Sigma Aldrich) was used as a substrate. For kinetic measurements, reaction mixtures (500 μl total) contained 0.5-1 μg HvPPA and 1 mM PPi in high-salt buffer (3 M NaCl and 20 mM Tris-HCl, pH 8.5). Reactions were incubated at 42° C. for 1-3 min. Orthophosphate levels were determined by malachite green assay. Briefly, 2.5 ml of 14% (w/v) (NH4)2MoO4 and 0.2 ml of 11% (v/v) TWEEN 20 ® (Polyoxyethylene sorbitan monolaurate) were added into a 10-ml color reagent I (containing 1.67 ml conc. sulfuric acid, 8.33 ml nanopure H2O, and 12.22 mg malachite green). In triplicate, 50 μl of the color reagent was mixed with 200 μl of the reaction mixture and incubated at room temperature for 10 min. The formation of (MG^+)(H2PMo12O40) (where MG^+ represents ionized malachite green) was monitored at A630. A less sensitive malachite green assay was also used in which reaction aliquots (50 μl) were mixed with 250 μl color reagent II and 10 μl 1.5% (v/v) TWEEN 20 ® (Polyoxyethylene sorbitan monolaurate) in triplicate; product formation was immediately monitored at A650. […]

[5] = as above; assay type: biochemical, Haloferax volcanii; settings: 25° C.

F [NaF, sodium fluoride]
Ki (HvPPA; pH 7.5): 200 µM
Ki (HvPPA; pH 8.5): 1800 µM

B1: Methanothermobacter thermautotrophicus: Class A type inorganic pyrophosphatase of Methanothermobacter thermautotrophicus (Methanobacterium thermoautotrophicum) (protein, UniProt O26363 1-176, looked up)
Inorganic pyrophosphatase: MNLWKDIEPGPSVPEVVYAVVEIPKGSRNKYEYHKDLQAFALDRVLYSAVFYPAEYGIIPRTLYDDGDPMDILVLMDEPTFPGCIIESRPIGLLRMIDGGDQDDKILAVPVADPHFADVKDISDIPEHNLKEIANFFETYKKLEGKKTETLGWEGAEKAFEAVNHSIELYRKKYME
pH, optimum ([1]; 60° C.): pH 7.7 (60° C.)
Hill coefficient(s) (Mg^2+) [1]: 2.0 (Mg^2+)
Hill coefficient(s) (PPi) ([1]; PPi): 3.3 (PPi),
Km ([1]; for Mg^2+, read-out: Km Mg^2+): 4900 µM
Km ([1]; for PPi, read-out: Km PPi): 160 µM
Vmax [1]: 570 U · mg^−1

B2: Pyrococcus horikoshii: Class A type inorganic pyrophosphatase of Pyrococcus horikoshii (protein, UniProt O59570 1-178, looked up)
Inorganic pyrophosphatase: MNPFHDLEPGPNVPEVVYALIEIPKGSRNKYELDKETGLLKLDRVLYTPFHYPVDYGIIPRTWYEDGDPFDIMVIMREPTYPLTIIEARPIGLFKMIDSGDKDYKVLAVPVEDPYFKDWKDISDVPKAFLDEIAHFFKRYKELEGKEIIVEGWEGAEAAKREILRAIEMYKEKFGKKE
Vmax ([1]; 60° C.): 930 U · mg^−1
Km ([1]; for Mg^2+, read-out: Km Mg^2+): 300 µM
Hill coefficient(s) ([1]; in words): Cooperative
Substrate(s) hydrolyzed: ADP ([1]; substrate ADP): (2.9%)]
Substrate(s) hydrolyzed: ATP ([1]; substrate ATP): ATP (5.9%); ADP
Substrate(s) hydrolyzed: P3 ([1]; substrate P3): 2.7%

B3: Thermoplasma acidophilum: Class A type inorganic pyrophosphatase of Thermoplasma acidophilum (protein, UniProt P37981 1-179, looked up)
Inorganic pyrophosphatase: MESFYHSVPVGPKPPEEVYVIVEIPRGSRVKYEIAKDFPGMLVDRVLYSSVVYPVDYGLIPRTLYYDGDPMDVMVLISQPTFPGAIMKVRPIGMMKMVDQGETDNKILAVFDKDPNVSYIKDLKDVNAHLLDEIANFFSTYKILEKKETKVLGWEGKEAALKEIEVSIKMYEEKYGKKN
Vmax ([1]; 56° C.): 1100 U · mg^−1
Hill coefficient(s) (Mg^2+) [1]: 1.8 (Mg^2+)
Km ([1]; for Mg^2+, read-out: Km Mg^2+): 1700 µM
Km ([1]; for PPi, read-out: Km PPi): 7 µM

B4: HvPPA: Class A type inorganic pyrophosphatase from Haloferax volcanii, amino acid sequence of SEQ ID NO: 2 (protein, listed as Haloferax volcanii)
chain: MVNLWEDMETGPNAPDEIYAVVECLKGERNKYEYDKDIPGVVLDRVLHSNVHYPSDYGFIPQTYYDDEDPFDVLVLVEDQTFPGCVIEARPVALMKMDDDGEQDDKVIAVPVEDPRYDHIEDLDDIPQQTLDEIDEFFATYKNLEAGKEVETLGWEDKQAAKDAIEHAMDLYEENFA
Pi detected in coupled adenylation assay [2]: Significant levels of Pi were detected
stability when stored in salt [3]: more stable
activity remained ([3]; after 2 h at 42° C., relative to samples on ice): 82%
Thermal inactivation (half-life) ([3]; buffer, pH 8): 2 h
Substrate(s) hydrolyzed [4]: PPi
hydrolysis of nucleoside triphosphate (ATP, TTP, GTP or CTP) or nucleoside diphosphate (ADP) [4]: did not hydrolyze detectable levels
kcat [4]: 1050 s⁻¹
activity of restored EDTA-treated enzyme versus untreated control ([4]; 2.5 mM MgCl2): half the activity of the untreated control
Temp., optimum [4]: 42 °C
Temp., optimum ([4]; listed as HvPPA hexamers): 42 °C
effect of NaCl on relative activity ([4]; 0.025 to 3 M NaCl): little, if any, effect; also recorded: fully active
optimal activity, basic pH ([4]; 3 M NaCl, 10 mM MgCl2, 100 μM PPi, RT): 8-9 pH
activity in organic solvent compared to no solvent controls ([4]; 25% (v/v) DMSO or DMF): 63-94%
activity in organic solvent compared to no solvent controls ([4]; 25% (v/v) methanol or ethanol): 110-150%
pH, optimum ([4]; 25° C.): pH 8.5 (25° C.)
Vmax ([4]; 25° C., PPi substrate): 53 U/mg
Vmax ([4]; 42° C.): 465 U · mg^−1
Vmax ([4]; 42° C., PPi substrate): 465 U/mg
Cation-dependence [4]: partially restored by supplementation of the enzyme with Mn^2+ or Mg^2+ ions
Cation-dependence ([4]; listed as Haloferax volcanii): Mg^2+, Mn^2+
Mg^2+ concentration for optimal PPi hydrolyzing activity ([4]; Mg^2+ added to reaction buffer): 20 to 40 mM
Hill coefficient(s) (Mg^2+) ([4]; Mg^2+, 25° C.): 2.6 (Mg^2+, 25° C.)
Hill coefficient(s) (PPi) ([4]; PPi, 42° C.): 2.1 (PPi, 42° C.)
effect of removal of divalent cations ([4]; dialysis against the metal chelator EDTA): inactivated
Km ([4]; for Mg^2+, 25° C., listed as Haloferax volcanii, read-out: Km Mg^2+): 13400 µM
Km ([4]; for Mg^2+, 25° C., read-out: Km Mg^2+): 13000 µM
Km ([4]; for PPi, 25° C., read-out: Km PPi): 260 µM
Km ([4]; for PPi, 42° C., read-out: Km PPi): 550 µM
Vmax [5]: 53 U · mg^−1 (25° C.)
Hill coefficient(s) (Mg^2+) ([5]; Mg^2+): 2.62
Hill coefficient(s) (PPi) ([5]; PPi): 1.4 (PPi, 25° C.)
Inhibitors (HvPPA): NaF
